Assay results from paper doi:10.1101/471821.
No end group written: not given here.

Molecular target: purified HLA A*03:01 class I MHC molecules
Assay: radioligand binding

Binder | IC50 [nM]
DSYIIIGVEPGQLK (not fully specified) | 2000
IIIGVEPGQL (not fully specified) | > 5000
